Measurements from PMC6749071, “Identification of Lysine Histidine Transporter 2 as an 1-Aminocyclopropane Carboxylic Acid Transporter in Arabidopsis thaliana by Transgenic Complementation Approach” (Frontiers in Plant Science, 2019).

Substrate: NC1(C(=O)O)CC1
Assay: two-electrode voltage clamp, inward current in Xenopus oocytes
Format: cell-based, Arabidopsis thaliana
Settings: pH 5.6, -80 mV, room temperature, Michaelis-Menten fit

Row | Protein | K0.5 [mM]
1 | LHT2 (Arabidopsis thaliana) (protein, cDNA in pGEM-HE, cRNA injected into Xenopus laevis oocytes) MGNSEMSASEVAAAKQKNVDDWLPITSSRNAKWWYSAFHNVTAMVGAGVLSLPYAMSNLGWGPGVTIMVMSWIITLYTLWQMVEMHEIVPGKRLDRYHELGQHAFGEKLGLWIVVPQQLIVEVGVDIVYMVTGGASLKKVHQLVCPDCKEIRTTFWIMIFASVHFVISHLPNFNSISIISLAAAVMSLTYSTIAWAASVHKGVHPDVDYSPRASTDVGKVFNFLNALGDVAFAYAGHNVVLEIQATIPSTPEMPSKVPMWRGVIVAYIVVAICYFPVAFLGYYIFGNSVDDNILITLEKPIWLIAMANMFVVIHVIGSYQIFAMPVFDMLETVLVKKMNFNPSFKLRFITRSLYVAFTMIVAICVPFFGGLLGFFGGFAFAPTTYYLPCIMWLVLKKPKRFGLSWTANWFCIIVGVLLTILAPIGGLRTIIINAKTYKFFS | 59.1 ± 6.6
2 | LHT1 (Arabidopsis thaliana) (protein, cDNA in pGEM-HE, cRNA injected into Xenopus laevis oocytes) MVAQAPHDDHQDDEKLAAARQKEIEDWLPITSSRNAKWWYSAFHNVTAMVGAGVLGLPYAMSQLGWGPGIAVLVLSWVITLYTLWQMVEMHEMVPGKRFDRYHELGQHAFGEKLGLYIVVPQQLIVEIGVCIVYMVTGGKSLKKFHELVCDDCKPIKLTYFIMIFASVHFVLSHLPNFNSISGVSLAAAVMSLSYSTIAWASSASKGVQEDVQYGYKAKTTAGTVFNFFSGLGDVAFAYAGHNVVLEIQATIPSTPEKPSKGPMWRGVIVAYIVVALCYFPVALVGYYIFGNGVEDNILMSLKKPAWLIATANIFVVIHVIGSYQIYAMPVFDMMETLLVKKLNFRPTTTLRFFVRNFYVAATMFVGMTFPFFGGLLAFFGGFAFAPTTYFLPCVIWLAIYKPKKYSLSWWANWVCIVFGLFLMVLSPIGGLRTIVIQAKGYKFYS | 60.9 ± 8.2
